The target of one data set is T1, MBP-IE86 full length (human cytomegalovirus, UniProt P19893 1-580).
T1 sequence: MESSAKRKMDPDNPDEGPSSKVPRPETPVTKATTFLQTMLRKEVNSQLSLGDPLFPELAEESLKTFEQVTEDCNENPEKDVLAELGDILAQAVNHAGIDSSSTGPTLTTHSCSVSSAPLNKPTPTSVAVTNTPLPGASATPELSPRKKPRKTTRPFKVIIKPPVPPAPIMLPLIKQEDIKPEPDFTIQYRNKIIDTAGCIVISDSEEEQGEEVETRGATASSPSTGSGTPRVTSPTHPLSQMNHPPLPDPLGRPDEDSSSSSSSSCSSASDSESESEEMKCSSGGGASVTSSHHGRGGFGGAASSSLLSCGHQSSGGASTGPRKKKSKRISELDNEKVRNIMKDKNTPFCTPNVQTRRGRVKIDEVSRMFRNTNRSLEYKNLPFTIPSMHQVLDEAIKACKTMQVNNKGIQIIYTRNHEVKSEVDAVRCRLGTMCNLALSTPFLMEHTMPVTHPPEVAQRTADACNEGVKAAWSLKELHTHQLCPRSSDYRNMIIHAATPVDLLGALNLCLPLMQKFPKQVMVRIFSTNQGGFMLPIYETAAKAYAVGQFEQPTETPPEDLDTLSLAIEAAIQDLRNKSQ
Put plainly: size-exclusion chromatography. Background: SEC sorts molecules by how far they enter the pores of the column.

In data set [1] the target is Maltose binding protein (MBP) (UniProt P0AEX9 27-396). Description: size-exclusion chromatography.

B1: FDC (28bp, phosphorothioate) (dsDNA)
DNA 1: GACAGATCGTTTAGTGAACCGTACACGA
DNA 2: TCGTGTACGGTTCACTAAACGATCTGTC
modifications: four phosphorothioate bonds per strand (* in table)
Regarding B1, the binding result with MBP-IE86 full length is listed as “binds”; in data set [1], “no binding”.
